{"source": "paper PMC11640301", "about": "“Escherichia coli tRNA (Gm18) methyltransferase (TrmH) requires the correct localization of its methylation site (G18) in the D-loop for efficient methylation” (Journal of Biochemistry, 2023)", "key": {"[1]": {"target": "E. coli TrmH (without a tag sequence) (Escherichia coli, UniProt P0AGJ2)", "experiment": "radiometric filter assay, methyl transfer to tRNA transcript", "type": "biochemical", "details": "methyl donor; 200 μM SAM, tRNA^SerCGA transcript, pH 7.6, 37 °C; labelled compound"}, "[2]": {"target": "T1, TrmH (tRNA Gm18 methyltransferase) (Thermus thermophilus, UniProt Q5SM16 1-194)", "T1 sequence": "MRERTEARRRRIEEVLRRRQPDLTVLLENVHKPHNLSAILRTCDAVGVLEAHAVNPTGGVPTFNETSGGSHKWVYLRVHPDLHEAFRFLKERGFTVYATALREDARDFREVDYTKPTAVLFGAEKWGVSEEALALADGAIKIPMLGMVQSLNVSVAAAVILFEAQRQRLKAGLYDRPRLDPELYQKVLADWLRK", "experiment": "EMSA; 5 mM Mg-acetate, 400 mM KCl; no SAM listed; tRNA 4.25 uM; 50 mM Tris-HCl pH 7.6, 5 mM Mg-acetate, 6 mM 2-mercaptoethanol, 400 mM KCl, 5% glycerol; room temperature 30 min; 4.25 uM tRNA, 0-17 uM TrmH; 6% native PAGE", "details": "protein: recombinant; chain copies: 2; label: none; tRNA cloverleaf, long variable region"}, "[3]": {"target": "T2, TrmH (tRNA Gm18 methyltransferase) (Escherichia coli HB101 (gene source), UniProt P0AGJ2 1-229)", "T2 sequence": "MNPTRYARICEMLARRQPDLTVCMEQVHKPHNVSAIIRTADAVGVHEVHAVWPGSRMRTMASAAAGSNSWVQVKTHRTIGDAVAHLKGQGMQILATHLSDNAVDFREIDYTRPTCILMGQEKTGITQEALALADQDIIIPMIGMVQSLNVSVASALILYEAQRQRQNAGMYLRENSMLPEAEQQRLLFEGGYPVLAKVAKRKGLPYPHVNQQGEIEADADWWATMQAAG", "experiment": "EMSA; 5 mM Mg-acetate, 400 mM KCl; no SAM listed; tRNA 4.25 uM, complex at enzyme below 10 uM; slightly weaker than T. thermophilus TrmH; 50 mM Tris-HCl pH 7.6, 5 mM Mg-acetate, 6 mM 2-mercaptoethanol, 400 mM KCl, 5% glycerol; room temperature 30 min; 4.25 uM tRNA, 0-17 uM TrmH; 6% native PAGE", "details": "protein: recombinant; tags: none (pET30a, untagged); chain copies: 2; label: none; tRNA cloverleaf, long variable region"}, "[4]": {"target": "the molecule itself", "experiment": "crystal structure; E107G TrmH co-crystallised with 2 mM SAM; hanging-drop vapor diffusion, 20°C, 100 mM HEPES-NaOH (pH 7.6), 5% MPD, 10% PEG 6000; space group C2, one E107G-SAM molecule per asymmetric unit; dimer"}}, "data": [{"molecule": "C[S+](CC[C@H](N)C(=O)O)C[C@H]1O[C@@H](n2cnc3c(N)ncnc32)[C@H](O)[C@@H]1O", "note": "(stereo partly drawn) [S-adenosyl-L-methionine]", "values": [{"measurement": "radiometric filter assay, methyl transfer to tRNA transcript", "setting": "[1]", "value": "incorporation of the methyl group from [methyl-^3H]-SAM into E. coli tRNA^SerCGA transcript was monitored"}]}, {"molecule": "tRNASerCGA transcript (structured_RNA, none (unmodified transcript)) RNA: GGAGAGAUGCCGGAGCGGCUGAACGGACCGGUCUCGAAAACCGGAGUAGGGGCAACUCUACCGGGGGUUCAAAUCCCCCUCUCUCCGCCA", "values": [{"measurement": "binding result", "setting": "[2]", "value": "binds"}, {"measurement": "binding result", "setting": "[3]", "value": "binds"}]}, {"molecule": "E. coli TrmH (E107G) mutant, tRNA (Gm18) methyltransferase, with 6x His tag (enzyme, UniProt P0AGJ2 1-229, looked up, TrmH, tRNA (Gm18) 2'-O-methyltransferase of Escherichia coli; trmH gene amplified from E. coli HB101 genomic DNA with primers from the start codon to the stop codon; Glu107 replaced with Gly; No removal of the His tag is described; One molecule per asymmetric unit, so the dimer is formed by crystal symmetry; also called E107G mutant TrmH; E107G-SAM; source: E. coli BL21 (DE3) Rosetta 2, …) MNPTRYARICEMLARRQPDLTVCMEQVHKPHNVSAIIRTADAVGVHEVHAVWPGSRMRTMASAAAGSNSWVQVKTHRTIGDAVAHLKGQGMQILATHLSDNAVDFRGIDYTRPTCILMGQEKTGITQEALALADQDIIIPMIGMVQSLNVSVASALILYEAQRQRQNAGMYLRENSMLPEAEQQRLLFEGGYPVLAKVAKRKGLPYPHVNQQGEIEADADWWATMQAAG", "values": [{"measurement": "stoichiometry N", "setting": "[4]", "value": 2}]}]}
